We go through three molecules from paper PMC13225215, “Kinetic properties of optogenetic site-specific DNA recombination by LiCre-loxP”.

The target of series [1] is LiCre (asLOV2-Cre chimera) (synthetic chimera (Avena sativa LOV2?)) (UniProt P06956). The series can be described thus: SPR. To be noted: SPR (Biacore T200, SA chip): 20 mM Tris pH 7.4, 50 mM KCl, 150 mM NaCl, 10 mM MgCl2, 1 mM DTT, 0.05% P20; 25 C; 0.3125-10 nM protein; no blue light.
Another series addresses Cre recombinase (UniProt P06956 1-343). The series can be described thus: SPR; KD1, first unit; global kinetic fit of half and full site data; 10 mM Mg2+; no blue light; SPR (Biacore T200, SA chip): 20 mM Tris pH 7.4, 50 mM KCl, 150 mM NaCl, 10 mM MgCl2, 1 mM DTT, 0.05% P20; 25 C; 0.3125-10 nM protein; no blue light. Particulars: protein: recombinant; tags: N-terminal 6xHis; chain copies: 2; label: 5'-biotin on 1Y70; blunt. (In general: In SPR one partner is held on a chip, and binding of the other changes the refractive index at the surface.)

For orientation: Kd means the free concentration of one partner at which half of the binding sites on the other are occupied at equilibrium, for simple one-to-one binding. “CGGAATTCACAACTTCGTATAATGTATGCTATACGAAGTTATGGATCCGC (double strand) [full loxP (1Y68/1Y69)]” came in with a Kd in series [1] of 0.0061 nM.

“CGGAATTCAGATCTATAACTTCGTATAATGTGTCTAGAGGATCCGC (double strand) [half loxP (1Y70/1Y71)]” gave a Kd in series [1] of 0.49 nM.

B1: half loxP (1Y70/1Y71) (dsDNA)
DNA 1: CGGAATTCAGATCTATAACTTCGTATAATGTGTCTAGAGGATCCGC
DNA 2: GCGGATCCTCTAGACACATTATACGAAGTTATAGATCTGAATTCCG
Consider B1, for which the Kd in the series with Cre recombinase was 1.15 nM.
